Reference: paper PMC5443481, “Binding of CIB1 to the αIIb tail of αIIbβ3 is required for FAK recruitment and activation in platelets” (PLoS ONE, 2017)

T1: calcium- and integrin-binding protein 1 (CIB1) (human (endogenous in platelets), UniProt Q99828 1-191)
T1 sequence (looked up): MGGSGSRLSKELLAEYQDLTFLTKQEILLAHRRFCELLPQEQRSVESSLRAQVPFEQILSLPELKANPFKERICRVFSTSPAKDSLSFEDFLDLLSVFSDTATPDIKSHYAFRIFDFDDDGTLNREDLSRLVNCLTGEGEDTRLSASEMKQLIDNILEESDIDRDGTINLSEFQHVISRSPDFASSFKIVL


Key:
[1] = biological target: calcium- and integrin-binding protein 1 (CIB1) (human (endogenous in platelets)) (UniProt Q99828); assay: co-IP; anti-CIB1 immunoprecipitates (overnight 4°C, protein G-Sepharose) of pre-cleared 1% Nonidet P-40 lysates of washed human platelets exposed to BSA or immobilized Fg for ~45 min; blots for αIIb, FAK, c-Src; treatments: DMSO, BAPTA-AM (50 μM), cytochalasin D after adhesion
[2] = biological target: T1, calcium- and integrin-binding protein 1 …; assay: cell-based or functional assay

Molecule	fold reduction of co-precipitated αIIb with BAPTA-AM against vehicle [1]	c-Src activation (pY418 blot of lysates) in human platelets on immobilized Fg; inhibition by the incorporated αIIb peptide, which blocks CIB1 with αIIb (m1+m2) [2]
integrin αIIb subunit of αIIbβ3 (receptor)	6 fold	–
KVGFFKRNRPPLEEDDEEGE (peptide, UniProt P08514 1020-1039, looked up) [αIIb cytoplasmic domain peptide]	–	> 8 fold
